Measurements published in article PMC12800238.

What was measured:
[1] = target: WEEV strain California virus-like particles (Western equine encephalitis virus, strain California); experiment: ELISA
[2] = target: WEEV California E1 domain III fused to human IgG1 Fc (Western equine encephalitis virus, strain California); experiment: BLI
[3] = target: human VLDLR LA5 fused to human IgG1 Fc (human) (UniProt P98155); experiment: BLI
[4] = target: human VLDLR LA3 fused to human IgG1 Fc (human) (UniProt P98155); experiment: BLI
[5] = target: human VLDLR LA1 fused to human IgG1 Fc (human) (UniProt P98155); experiment: BLI
[6] = target: human VLDLR LA2 fused to human IgG1 Fc (human) (UniProt P98155); experiment: BLI

human VLDLR LA3 fused to human IgG1 Fc (from UniProt P98155-1 111-151) (Fc fusion)
Kd [1]: 10.9 µM

human VLDLR LA5 with 6x His tag (from UniProt P98155-1 191-236) (domain or fragment)
Kd [2]: 0.808 µM

human VLDLR LA1-5 fused to human IgG1 Fc (from UniProt P98155-1 28-236) (Fc fusion)
Kd [1]: 0.41 µM

human VLDLR LA3 with 6x His tag (from UniProt P98155-1 111-151) (domain or fragment)
Kd [2]: 0.83 µM

human VLDLR LA5 fused to human IgG1 Fc (from UniProt P98155-1 191-236) (Fc fusion)
Kd [1]: 7.77 µM

human VLDLR LA1-2 fused to human IgG1 Fc (from UniProt P98155-1 28-113) (Fc fusion)
Kd [1]: 1.63 µM

human VLDLR ligand-binding domain (LA1-8) fused to human IgG1 Fc (from UniProt P98155-1 28-355) (Fc fusion)
Kd [1]: 1.21 µM

human VLDLR LA1-3 fused to human IgG1 Fc (from UniProt P98155-1 28-152) (Fc fusion)
Kd [1]: 0.47 µM

WEEV strain California virus-like particles (complex)
Kd [3]: 0.00037 µM | Kd [4]: 0.00609 µM | Kd [5]: 0.00011 µM | Kd [6]: 0.00159 µM
